Target: PIFtide (24 residue synthetic peptide encompassing the PDK1 binding site on PIF) (human)
Assay: method not stated

PIFtide (24 residue synthetic peptide encompassing the PDK1 binding site on PIF) (human), sequence (peptide, as listed by the source): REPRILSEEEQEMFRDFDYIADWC

fold decrease in affinity (against wild type PDK1): 10 fold
Substance: GST-PDK1[K115A] (from UniProt O15530 1-556) (enzyme)
